In patent US20190367592A1 (AC IMMUNE, published 2019):
Changes are numbered by the printed parent chain.

B1: 125B11-H3 (antibody, mouse IgG2a, V domains shown)
VH: EVKLEESGGGLVQPGGSMKLSCVASRFIFSNYWMNWVRQSPEKGLEWVAQIRLKSDNYATHYAESVKGRFTISRDDSKSSVYLQMNNLRAEDTGIYYCTGGTTYWGQGTTLTVSS
VL: DIVMTQSQKFLSTSVGDRVNITCKASQNVGTAVAWYQQKPGQSPGLLIYSASIRYTGVPDRFTGNGSGTDFTLTISDMQSEDLADYFCQQFRTYPYTFGGGTKLEIK
notes: also called 125B1-H3
B2: hu94B2 HC3 + LC11 (antibody, V domains shown)
VH: EVQLVQSGAEVKKPGASVKVSCKASGYSLTGYTMNWVRQAPGQGLEWIGLISPYNGVTSYNQKFKGRATITVDKSTSTAYLELSSLRSEDTAVYYCARQGAYWGQGTLVTVSS
VL: DVVMTQTPLSLPVTPGQPASISCKSSQSLLDSDGKTYLNWYLQKPGQSPQRLIYLVSKLDSGVPDRFSGSGSGTDFTLKISRVEAEDVGVYYCWQGTHFPWTFGQGTKVEIK
B3: hu94B2 HC4 + LC13 (antibody, V domains shown)
VH: B2 VH with I70L, V72R
VL: B2 VL with V2I, Y41L
B4: hu94B2 HC2 + LC13 (antibody, V domains shown)
VH: B2 VH with A68V, I70L
VL: B2 VL with V2I, Y41L
B5: hu94B2 HC8 + LC15 (antibody, V domains shown)
VH: B2 VH with A68V, K74T
VL: B2 VL with V2I
B6: hu94B2 HC5 + LC11 (antibody, V domains shown)
VH: B2 VH with I70L, K74T
VL: B2 VL
B7: hu94B2 HC8 + LC13 (antibody, V domains shown)
VH: B2 VH with A68V, K74T
VL: B2 VL with V2I, Y41L
B8: hu94B2 HC3 + LC15 (antibody, V domains shown)
VH: B2 VH
VL: B2 VL with V2I
B9: hu94B2 HC1 + LC11 (antibody, V domains shown)
VH: B2 VH with I70L
VL: B2 VL
B10: hu94B2 HC2 + LC11 (antibody, V domains shown)
VH: B2 VH with A68V, I70L
VL: B2 VL
B11: hu94B2 HC8 + LC11 (antibody, V domains shown)
VH: B2 VH with A68V, K74T
VL: B2 VL
B12: hu94B2 HC3 + LC9 (antibody, V domains shown)
VH: B2 VH
VL: B2 VL with Y41L
B13: hu94B2 HC5 + LC9 (antibody, V domains shown)
VH: B2 VH with I70L, K74T
VL: B2 VL with Y41L
B14: hu94B2 HC6 + LC13 (antibody, V domains shown)
VH: B2 VH with A68V
VL: B2 VL with V2I, Y41L
B15: hu94B2 HC6 + LC15 (antibody, V domains shown)
VH: B2 VH with A68V
VL: B2 VL with V2I
B16: hu94B2 HC2 + LC9 (antibody, V domains shown)
VH: B2 VH with A68V, I70L
VL: B2 VL with Y41L
B17: hu94B2 HC7 + LC13 (antibody, V domains shown)
VH: B2 VH with A68V, V72R
VL: B2 VL with V2I, Y41L
B18: hu94B2 HC5 + LC15 (antibody, V domains shown)
VH: B2 VH with I70L, K74T
VL: B2 VL with V2I
B19: hu94B2 HC7 + LC9 (antibody, V domains shown)
VH: B2 VH with A68V, V72R
VL: B2 VL with Y41L
B20: hu94B2 HC6 + LC11 (antibody, V domains shown)
VH: B2 VH with A68V
VL: B2 VL
B21: hu94B2 HC5 + LC13 (antibody, V domains shown)
VH: B2 VH with I70L, K74T
VL: B2 VL with V2I, Y41L
B22: hu94B2 HC8 + LC9 (antibody, V domains shown)
VH: B2 VH with A68V, K74T
VL: B2 VL with Y41L
B23: hu94B2 HC2 + LC15 (antibody, V domains shown)
VH: B2 VH with A68V, I70L
VL: B2 VL with V2I
B24: hu94B2 HC6 + LC9 (antibody, V domains shown)
VH: B2 VH with A68V
VL: B2 VL with Y41L
B25: hu94B2 HC3 + LC13 (antibody, V domains shown)
VH: B2 VH
VL: B2 VL with V2I, Y41L
B26: hu94B2 HC1 + LC15 (antibody, V domains shown)
VH: B2 VH with I70L
VL: B2 VL with V2I
B27: hu94B2 HC4 + LC9 (antibody, V domains shown)
VH: B2 VH with I70L, V72R
VL: B2 VL with Y41L

Each binder was assayed against T1, recombinant human Tau monomer, 2N4R isoform (amino acids 2-441) (human, UniProt P10636-8 2-441) (assay: SPR, mIgG2a captured, Tau monomer analyte, 1:1 fit).
T1 construct: range 2-441; N-terminal His-tag removed with TEV protease; also called monomeric Tau
Description: Antibody heavy and light chains were constructed via gene synthesis and subcloning of the resulting DNA into murine IgG2a (heavy chain) and murine kappa (light chain) mammalian expression vectors. Antibodies were expressed in CHO or 293T cells by transient co-transfection of the heavy chain and light chain plasmids and were purified with affinity resin MabSelectSure (GE Healthcare Life Sciences). Purified recombinant antibodies were screened for binding to Tau monomer protein on a Biacore T200 surface plasmon resonance instrument using a mouse IgG capture kit and a Series S CM5 chip. Antibodies in mIgG2a format diluted in 10 mM HEPES pH7.4, 150 mM NaCl, 0.05% Tween 20 (running buffer, HBSP) were captured for 30 or 45 seconds at a concentration of 1 μg/ml (antibodies 26C1, 94B2-C1, 52F6-F11.v1, 52F6-F11.v2, 11E10-B8, 55E7-F11, 125B1-H3, 123E9-A1, 30G1-B2, 66F5-A1, 89F4-A1, 93A8-D2 and 126F11-G11) or for 70 or 150 seconds at a concentration of 0.1 μg/ml (antibodies 19H6-F7, 3A4-H4, 54C1-H11 and 37D3-H9) using a flow rate of 10 μl/min. […] Association and dissociation times were monitored for 180-480 seconds and for 300-600 seconds respectively. Antibody 37D3-H9 was selected for further analysis due to the high affinity (Table 6) and the absence of NXS/T glycosylation motifs in the CDRs.

T1 sequence (P10636 other isoform, or with tags, fused parts or gaps limits assumed): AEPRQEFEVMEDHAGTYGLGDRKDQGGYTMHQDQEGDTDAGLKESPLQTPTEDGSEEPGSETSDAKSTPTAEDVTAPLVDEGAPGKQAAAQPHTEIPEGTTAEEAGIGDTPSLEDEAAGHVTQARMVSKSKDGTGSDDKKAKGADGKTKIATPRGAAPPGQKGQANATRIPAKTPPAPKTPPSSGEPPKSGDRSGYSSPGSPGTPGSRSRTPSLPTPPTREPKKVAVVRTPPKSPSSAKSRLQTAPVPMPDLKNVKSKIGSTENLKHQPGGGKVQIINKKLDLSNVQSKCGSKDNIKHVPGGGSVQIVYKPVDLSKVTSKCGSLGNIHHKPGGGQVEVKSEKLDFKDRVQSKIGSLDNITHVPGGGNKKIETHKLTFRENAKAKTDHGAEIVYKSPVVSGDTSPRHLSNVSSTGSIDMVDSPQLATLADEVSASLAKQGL

Binder | Kd | koff | kon
B1 | 5 nM | 0.0003 s⁻¹ | 50000 M⁻¹ s⁻¹

What follows are binders tested against T1, recombinant human Tau monomer, 2N4R … (assay: SPR screen, hIgG captured, Tau monomer analyte).
Description: Antibody 125B11-H3 was humanized onto VH3 and Vκ1 consensus frameworks. The heavy chain graft included murine residues at position 78 (Kabat numbering system). The Vκ1 graft included murine residues in framework positions 43 and 87. The light chain of 113F5-F7 was also humanized onto the Vκ1 framework, with additional murine residues at framework positions 43 and 87. Humanized variant heavy chains (125B11) and light chains (125B11 and 113F5-F7) were co-transfected in multiple combinations and purified in 96-well format as described above. Humanized variants were then screened for affinity for human Tau monomer using the Biacore human IgG capture kit, a Series S CM5 chip and a Biacore T200 instrument. Antibodies were diluted to 2 μg/ml and captured for 15 seconds at 10 μl/min. Association and dissociation of 0, 100 and 500 nM human Tau monomer in HBSP was monitored for 180s and 300s respectively at a flow rate of 40 μl/min. A 1:1 binding model was applied to the results (Table 9).
Variants hu125B11.v17 (HC3+LC1), hu125B11.v26 (HC4+LC2) and hu125B 11.v28 (HC4+LC4) were selected for high-resolution kinetic analysis based on the affinity screen (Table 10). Antibody 94B2-C1 was humanized onto VH1 and Vx2 frameworks. The heavy chain graft also included murine residues at position 28, 29, 67, 69, 71, and 73 (Kabat numbering system). The Vκ2 graft also included murine residues in framework positions 2, 36, and 46. […] Variant hu94B2.v105 (heavy chain variant 94B2.HCl, light chain variant 94B2.LC13) was selected for detailed SPR characterization (Table 11).

Binder | Kd
B2 | 69.3 nM
B3 | 64.1 nM
B4 | 7.4 nM
B5 | 51.5 nM
B6 | 62.6 nM
B7 | 2.4 nM
B8 | 64.1 nM
B9 | 91.5 nM
B10 | 89.6 nM
B11 | 44.3 nM
B12 | 2 nM
B13 | 2.7 nM
B14 | 3 nM
B15 | 74.1 nM
B16 | 5.7 nM
B17 | 57.8 nM
B18 | 72.6 nM
B19 | 52.9 nM
B20 | 70.1 nM
B21 | 4 nM
B22 | 1 nM
B23 | 99.6 nM
B24 | 0.9 nM
B25 | 3.8 nM
B26 | 104 nM
B27 | 61.9 nM

The binders below were run against T2, full-length human Tau (flTau) (human, UniProt P10636-8 1-441) (assay: SPR, hybridoma Ab on anti-IgG chip, flTau analyte).
T2 construct: range 1-441; bought (SignalChem); also called human Tau-441
Procedure: Affinity of non-purified antibodies in serum-free hybridoma supernatants was estimated by surface plasmon resonance using a Biacore T-100 instrument (GE Healthcare, United Kingdom). Antibodies were immobilized onto an anti-IgG biosensor chip, and flTau (SignalChem, Canada) was used as the target analyte. Kinetic analysis was done using a 1:1 Langmuir fit model.
For affinity measurements to flTau, antibodies were measured using SPR on a Biacore instrument, with the KDs determined. Biacore affinity measurements were done by immobilizing antibodies on an anti-IgG chip and using flTau as the target analyte.

T2 sequence (P10636 other isoform, or with tags, fused parts or gaps limits assumed): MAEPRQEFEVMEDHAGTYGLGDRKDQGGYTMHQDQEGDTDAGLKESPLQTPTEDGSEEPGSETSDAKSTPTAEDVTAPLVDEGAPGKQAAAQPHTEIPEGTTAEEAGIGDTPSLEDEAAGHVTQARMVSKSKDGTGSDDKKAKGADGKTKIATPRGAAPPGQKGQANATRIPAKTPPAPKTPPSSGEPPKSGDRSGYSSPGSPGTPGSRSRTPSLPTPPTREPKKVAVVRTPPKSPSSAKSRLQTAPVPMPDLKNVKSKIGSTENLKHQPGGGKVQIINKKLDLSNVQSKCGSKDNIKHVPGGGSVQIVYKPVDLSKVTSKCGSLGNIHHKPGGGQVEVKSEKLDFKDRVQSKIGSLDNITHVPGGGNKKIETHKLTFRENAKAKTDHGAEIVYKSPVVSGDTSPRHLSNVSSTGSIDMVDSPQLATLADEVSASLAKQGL

Binder | Kd
B1 | 6 nM
